US20210292730

Molecular target: T1, Recombinant murine APRIL (Sigma SRP3189-20UG), Q9D777
T1 chain: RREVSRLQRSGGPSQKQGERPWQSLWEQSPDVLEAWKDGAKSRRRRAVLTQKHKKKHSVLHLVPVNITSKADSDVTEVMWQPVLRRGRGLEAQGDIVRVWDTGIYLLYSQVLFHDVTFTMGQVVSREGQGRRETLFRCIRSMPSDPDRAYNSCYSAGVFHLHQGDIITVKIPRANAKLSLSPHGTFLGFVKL

B1: plant produced recombinant human Furin (truncated form, pEAQ-Furin (truncated)-His6-KDEL, produced in N. benthamiana) (protein)
chain: QGQKVFTNTWAVRIPGGPAVANSVARKHGFLNLGQIFGDYYHFWHRGVTKRSLSPHRPRHSRLQREPQVQWLEQQVAKRRTKRDVYQEPTDPKFPQQWYLSGVTQRDLNVKAAWAQGYTGHGIVVSILDDGIEKNHPDLAGNYDPGASFDVNDQDPDPQPRYTQMNDNRHGTRCAGEVAAVANNGVCGVGVAYNARIGGVRMLDGEVTDAVEARSLGLNPNHIHIYSASWGPEDDGKTVDGPARLAEEAFFRGVSQGRGGLGSIFVWASGNGGREHDSCNCDGYTNSIYTLSISSATQFGNVPWYSEACSSTLATTYSSGNQNEKQIVTTDLRQKCTESHTGTSASAPLAAGIIALTLEANKNLTWRDMQHLVVQTSKPAHLNANDWATNGVGRKVSHSYGYGLLDAGAMVALAQNWTTVAPQRKCIIDILTEPKDIGKRLEVRKTVTACLGEPNHITRLEHAQARLTLSYNRRGDLAIHLVSPMGTRSTLLAARPHDYSADGFNDWAFMTTHSWDEDPSGEWVLEIENTSEANNYGTLTKFTLVLYGTAPEGLPVPPESSGCKTLTSSQAHHHHHHKDEL
  in vitro cleavage of 5 µg APRIL by 25 ng Furin, 25° C., 1 h, SDS-PAGE: recombinant APRIL protein is cleaved by both plant produced human Furin (25ng) or commercial Furin (25 ng) and 16.8 kDa fragment was generated
